Results published in the supplement of paper PMC10567573.
± gives the standard deviation.

Test: protein stability index of a GFP-peptide fusion (GPS, HEK-293T) (PSI 1-6); higher = more stable
[1] = treatment: DMSO, c terminus: a fixed tail appended
[2] = treatment: MLN4924 1 uM, 8 h, c terminus: a fixed tail appended
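Also: 24-mer peptide tiles fused after GFP, lentivirally expressed, FACS-sorted into six equal bins by GFP/DsRed ratio, decoded by Illumina sequencing, PSI is the read-weighted mean bin number.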

Sequence | protein stability index [1] | protein stability index [2] | protein stability index (treatment: DMSO, c terminus: native) | protein stability index (treatment: MLN4924 1 uM, 8 h, c terminus: native)
LQHVSEPQAHQESTRGAARPAQAI [SPACA9] | 4.96 ± 0.19 | 5.04 ± 0.098 |  | 
GVSKVGLRKIIDFIYTAKLSLNMD [KLHL13] | 2.81 ± 0.75 | 2.83 ± 0.63 |  | 
CESCVDLLFVRGAGNCPECGTPLR [MNAT1] | 4.27 ± 0.32 | 4.51 ± 0.17 |  | 
QQQHIECVVCGDKSSGKHYGQFTC [NR2F2] | 3.06 ± 0.24 | 3.12 ± 0.48 |  | 
LDVFGRGDNISDVSKFLEDDKWME [LUC7L3] | 4.72 ± 0.27 | 4.37 ± 0.14 |  | 
MEMYNVIMTVKEDQFSALGLDPCL [SLC6A17] | 2.45 ± 0.62 | 2.26 ± 0.15 |  | 
KQLLDSKIGFEIGIENEEDTSKQK [ZNF449] | 5.3 ± 0.27 | 5.26 ± 0.3 |  | 
YEKAYEGGSELGGWSLGRWTHDGI [CPXM2] | 2.49 ± 0.82 | 2.69 ± 0.16 |  | 
TTTDHSSNPGPVPGSSSGPVLGSS [SPAG8] | 5.08 ± 0.16 | 5.13 ± 0.09 |  | 
AKRCTVIGGSGFLGQHMVEQLLAR [NSDHL] | 2.1 ± 0.2 | 2.21 ± 0.41 |  | 
GQDTFCQGKADGLYPNPRERSSFY [CHIT1] | 3.71 ± 0.28 | 3.57 ± 0.35 |  | 
RLEALSTERDEIEDVKCQEDQKLQ [TRIM15] | 5.21 ± 0.32 | 5.66 ± 0.16 |  | 
PAPSPHEEPCSPGLLQDQGSGLSS [CBY2] | 5.31 ± 0.22 | 5.194 ± 0.04 |  | 
PMPLAPTRSHLWEAAQVVPDGLGL [TRIB3] | 3.48 ± 0.32 | 3.34 ± 0.23 |  | 
LCGENFSHRSNLIRHQRIHTGEKP [ZNF263] | 3.91 ± 0.17 | 3.72 ± 0.22 |  | 
SMAAVPTLELCHDELFADLFNSNH [CEBPD] | 3.57 ± 0.3 | 3.6 ± 0.26 |  | 
AMKITQEPQGLGYWEAWRHHCQGK [SPACA3] | 3.05 ± 0.18 | 3.17 ± 0.29 |  | 
LATFSSDWEIQEDSRLMCSSVQKA [CCDC3] | 4 ± 0.44 | 3.9 ± 0.29 |  | 
RELWLKFHEVGTEMIITKAGRRMF [TBX5] | 2.31 ± 0.23 | 2.37 ± 0.31 |  | 
WGRLLEQVGTMALWASQREKEVLR [ZBED2] | 2.18 ± 0.16 | 2.36 ± 0.23 |  | 
RFHGRLLFLKDVLGDEICCWSFYG [KCTD13] | 2.49 ± 0.38 | 2.56 ± 0.71 |  | 
PRVRELLLDALSPEQLVLTLLEAE [ESR2] | 2.22 ± 0.22 | 2.22 ± 0.26 |  | 

Sequence | protein stability index [1] | protein stability index [2] | protein stability index (treatment: DMSO, c terminus: native) | protein stability index (treatment: MLN4924 1 uM, 8 h, c terminus: native)
SLQEEPVEGFRITLVDESDLYNWE [UBE2R2] | 3.66 ± 0.49 | 3.58 ± 0.4 |  | 
SRSSILVQHQRVHTGEKPYKCLEC [ZNF24] | 3.54 ± 0.19 | 3.65 ± 0.23 |  | 
SYTIITPLFNPMIYSLRNKEFKSA [OR10K2] | 2.74 ± 0.65 | 2.38 ± 0.34 |  | 
MGWFNNEVGSMKIQSGAWVCYQYP [CRYBA1] | 2.74 ± 0.73 | 2.61 ± 0.29 |  | 
IIVTIMASQSLGSPMYFFLASLSF [OR4A15] | 3.29 ± 0.57 | 3.13 ± 0.2 |  | 
GPVRPAIPPPLSSVYAWGGGLGTP [NEK8] | 3.18 ± 0.2 | 3.18 ± 0.27 |  | 
YSWNNRCMVEIVQKYDPDKDEWHK [KLHL13] | 2.84 ± 0.42 | 2.86 ± 0.25 |  | 
TVDKQNISLWPREPPPKSGPSLVP [CD207] | 3.84 ± 0.21 | 3.73 ± 0.082 |  | 
TLDPNGKTCSRVDHCAQQDHGCEQ [MATN2] | 4.03 ± 0.25 | 4.16 ± 0.22 |  | 
TAPRTLPSCLACNRQCLCSAESMV [SPRY1] | 2.75 ± 0.34 | 2.59 ± 0.48 |  | 
SLDGRDPGNGTHGLSPEEKEQLSN [ELOA2] | 5.48 ± 0.23 | 5.64 ± 0.16 |  | 
FDMSRYSSSGYSSAEINQDLNIQL [FAM219A] | 3.06 ± 0.27 | 3.12 ± 0.18 |  | 
DLKPENILFVNSEFETLYNEHKSC [CLK3] | 3.38 ± 0.37 | 3.48 ± 0.26 |  | 
AATLLLALLSCCLTVVSFYQVAAL [TNFSF13B] | 3.24 ± 0.23 | 3.31 ± 0.32 |  | 
CESLTYGLPFILRPTSCWQLDWDE [M1AP] | 2.25 ± 0.15 | 2.04 ± 0.3 |  | 
LPHGVNFQDAIFPDTQENRRMFSS [CCDC3] | 3.91 ± 0.18 | 3.92 ± 0.097 |  | 
RLEDKVKTLKAENAGLSSTAGLLR [JUNB] | 3.7 ± 0.22 | 3.97 ± 0.3 |  | 
EGATLLLRGLCANTVLRFLDLKGN [LRRC45] | 2.6 ± 0.4 | 2.98 ± 0.77 |  | 
GDLFNGRYHVIRKLGWGHFSTVWL [SRPK2] | 2.19 ± 0.07 | 2.17 ± 0.81 |  | 
FFINEAMELKVGDFGLAARLEPLE [PLK2] | 2.61 ± 0.14 | 2.68 ± 0.18 |  | 
PQRPRSAPRTSSCAERLQSEEQVS [FCHO1] | 4.85 ± 0.39 | 4.9 ± 0.24 |  | 
NLHRVAAHELGHSLGLSHSTDIGA [MMP1] | 3.48 ± 0.33 | 3.57 ± 0.33 |  | 

Sequence | protein stability index [1] | protein stability index [2] | protein stability index (treatment: DMSO, c terminus: native) | protein stability index (treatment: MLN4924 1 uM, 8 h, c terminus: native)
PAHKNLNKQAYDLAKALLKRTAQA [PDS5B] | 2.22 ± 0.16 | 2.51 ± 0.18 |  | 
SSSSSSQAPGQPPGNQAEHGAVTV [ZBTB22] | 5.12 ± 0.15 | 5.08 ± 0.24 |  | 
MRARDSVYHIECFRCSVCSRQLLP [ISL2] | 2.2 ± 0.24 | 2.22 ± 0.35 |  | 
ERGSMKTHFNTAQGFRTVLELVIN [OAS1] | 2.13 ± 0.43 | 2.5 ± 0.56 |  | 
EAYTKICDPGLTAFEPEALGNLVE [CAMK2D] | 3.91 ± 0.25 | 3.62 ± 0.27 |  | 
GLWSRISHLVLPVQPVSSIEEQGC [TOR1AIP2] | 2.44 ± 0.26 | 2.64 ± 0.38 |  | 
GDNPYMYPEQSKGFHKAGSMLPPV [SPATS1] | 3.37 ± 0.16 | 3.35 ± 0.27 |  | 
DFEHRPKAPVVECSITGDSSRVIA [WDR88] | 4.36 ± 0.26 | 4.49 ± 0.17 |  | 
HRWQVDLQLGDGGGCTVGVAGEGV [TRIM15] | 3.5 ± 0.27 | 3.38 ± 0.43 |  | 
YQSFVQFLQYYYQSGCLYRLRALG [TMEM120A] | 2.67 ± 0.88 | 3.22 ± 0.57 |  | 
AEHMKRQRHPRLRPQSAQSSFPPS [AUP1] | 4.13 ± 0.12 | 4.43 ± 0.25 |  | 
AINNLVLQGCSSIGLRLVLEYLYT [KLHL14] | 3.15 ± 0.55 | 3.04 ± 0.31 |  | 
YSSGSYDSIKTEVSGCPEDLTVGR [NOL4L] | 4.49 ± 0.23 | 4.44 ± 0.23 |  | 
LKELQAIAERLGCTLPQLAIAWCL [KCNAB2] | 2.29 ± 0.74 | 2.27 ± 0.25 |  | 
RVRLDSELRNVQDVVEDYKKRYEE [KRT71] | 4.81 ± 0.28 | 4.97 ± 0.32 |  | 
ARVKPPEGYDVVAVYPNAKVELV [PDLIM4] |  |  | 3.52 ± 0.35 | 3.65 ± 0.22
MADGNEDLRADDLPGPAFESYESM [KLHDC2] | 5.41 ± 0.23 | 5.26 ± 0.26 |  | 
HIKLHSGEKPFKCHLCNYACRRRD [IKZF1] | 2.55 ± 0.23 | 2.93 ± 0.61 |  | 
MAAESGELIGACEFMKDRLYFATL [CDC14A] | 2.53 ± 1.1 | 1.82 ± 0.46 |  | 
NKAAVMVHQLSKKEASRHAIMRSP [CTNNB1] | 3.86 ± 0.16 | 3.8 ± 0.2 |  | 
LREIPETTPIEEVKGLFKSENCPK [LARP4] | 5.06 ± 0.19 | 5.1 ± 0.33 |  | 
